Source: the RNAGym collection of RNA variant scans (doi:10.1093/nar/gkz1192)

B1: CPEB3 Ribozyme (parent)
chain: UAACAGGGGGCCACAGCAGAAGCGUUCACGUCGCAGCCCCUGUCAGAUUCUGGUGAAUCUGCGAAUUCUGCUGUAUAUCUC

Variants of: B1
Assay: self-cleavage, relative activity (ratio to wild type); higher = more cleavage; in vitro, sequencing
Method in brief: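 Barcoded CPEB3 ribozyme mutants, produced by rounds of error-prone PCR, self-cleaved while being transcribed with T7 RNA polymerase for 5 hours at 37°C and during a subsequent 15 min DNase I step before EDTA was added. Sequencing of template-switched cDNA on Illumina gave cleaved and total reads, and DNA sequencing assigned barcodes to variants. Each variant's relative activity is its cleaved/total read fraction divided by the unmutated ribozyme's fraction, averaged across three batches. A variant needed a minimum of 5 reads.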

Variant | self-cleavage
U48C C62U | 0.33
U48C G70A | 0.19
U48C G70C | 0.21
U48A U78A | 0.42
U48A U78C | 0.35
U48C U67A | 0.3
U48C U67C | 0.3
U48G U60G | 0.22
U49C G73A | 0.73
U49C G73U | 0.77
U49A U67A | 0.57
U49A U67C | 0.3
U49A U72C | 0.87
U49A U72A | 0.44
U49A U72G | 0.4
U48A U58G | 0.18
U48A U58A | 0.5
U48A U58C | 0.29
A47U U48G | 0.18
A47U U58C | 0.39
U49A A56U | 1.19

Variant | self-cleavage
U49A A56G | 0.59
U49G A64G | 0.4
A47U U67C | 0.3
A47U U67A | 0.33
U48C G52U | 0.84
U48C G52A | 0.87
U48C G52C | 0.42
U49A U78G | 0.6
U49A U78C | 0.57
U49A A57U | 0.4
U49A A57G | 0.5
U49C U69A | 0.25
U49C U69G | 0.25
U49C U69C | 0.31
U49C G55U | 0.24
U49C G55A | 0.18
U49C U58A | 0.14
U49C U58C | 0.24
U48C U54A | 0.71
U48C U54G | 0.38
U48C U54C | 0.4

Variant | self-cleavage
U48A U54A | 0.43
U48A U54C | 0.39
U48A G55A | 0.21
A47U U54C | 0.37
A47U U54A | 0.72
U48A U74A | 0.98
U48G G53C | 0.55
U48A A65U | 0.15
U48A A65G | 0.4
U48G U49C | 0.46
U48G U49A | 0.52
A47U U60G | 0.29
A47U U60A | 0.21
A47U U60C | 0.23
U48C U69C | 0.32
U48C U69G | 0.36
U48C U69A | 0.37
U48A A75G | 0.32
U48A A75U | 0.61
U48A U51C | 0.44
U49G A56U | 0.65

Variant | self-cleavage
U49G A56G | 0.35
U49C A65G | 0.26
U49C A65C | 0.14
U49C A65U | 0.26
U48C A65C | 0.21
U48C A65U | 0.27
U48C A65G | 0.27
A47U U66A | 0.26
A47U U66C | 0.36
U48C G55C | 0.36
U48C G55A | 0.32
U49C C71U | 0.23
U49C C71G | 0.19
U49C C71A | 0.17
U48A U67C | 0.25
U49G A75G | 0.42
U49C U66C | 0.25
U49C U66A | 0.31
U49C U66G | 0.29
U49A U74A | 1.34
U49A U74C | 0.95
